Measurements: patent US20210244815A1 (Genentech, published 2021)

Tests used:
CD3ε = target: T1, CD3ε (UniProt P07766 23-126, limits assumed); assay: SPR, Biacore T200, CD3ε immobilized on CM5, Fab injected
T1 construct: The antigen in the Biacore assay is called only 'CD3ε'; also called CD3ε antigen
Description: The binding affinity of selected Fab variants for CD3ε was measured by SPR with a BIACORE® T200 instrument. Briefly, a series S sensor chip CM5 was activated with 1-ethyl-3-(3-dimethylaminopropyl) carbodiimide (EDC) and N-hydroxysuccinimide (NHS) reagents according to the supplier's instructions, and 5 μg/ml CD3ε in 10 mM sodium acetate (pH4.0) was coupled to achieve 100 response units (RU), except for FC1 (which served as a reference). Unreacted groups were then blocked with 1 M ethanolamine. Next, three-fold serial dilutions of Fab in HBS-P buffer (0.01 M HEPES pH 7.4, 0.15M NaCl, 0.005% surfactant P20) from low (0.02 nM) to high (20 nM) were injected (flow rate: 30 μl/min). The binding responses on Fab were corrected by subtracting of RU from a blank flow cell. The sensorgram was recorded and subject to reference and buffer subtraction before evaluating by BIACORE® T200 Evaluation Software (Version 2.0). Association rates (kₐ) and dissociation rates (kd) were calculated using a simple one-to-one Langmuir binding model. The equilibrium dissociation constant (KD) was calculated as the ratio of kd/kₐ. The binding affinity kinetics were determined for a high-affinity anti-CD3 Fab, 38E4v11, having the heavy chain and light chain variable domain sequences set forth in FIG. 1.

CD3 = assay: method not stated
CD3, sequence (P07766 22-207): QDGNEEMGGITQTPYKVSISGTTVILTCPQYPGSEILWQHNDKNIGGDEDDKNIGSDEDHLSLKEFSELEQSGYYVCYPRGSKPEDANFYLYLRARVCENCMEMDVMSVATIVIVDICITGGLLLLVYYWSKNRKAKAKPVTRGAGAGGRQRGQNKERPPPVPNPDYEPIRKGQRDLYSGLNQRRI

T1 sequence (P07766 23-126 limits assumed): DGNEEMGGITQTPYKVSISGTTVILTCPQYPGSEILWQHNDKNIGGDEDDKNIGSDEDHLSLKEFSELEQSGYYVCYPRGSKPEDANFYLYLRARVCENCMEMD

fold increase in binding affinity relative to parent 38E4v1 (CD3ε) | Kd (CD3) | Binder
> 10 fold | – | anti-CD3 Fab 38E4v11 (Fab, V domains shown, Tested as a Fab from a mammalian Fab expression construct with a Flag tag (293T cells, purified on an anti-Flag column)) VH: EVQLVQSGAEVKKPGASVKVSCKASGFTFTSYYIHWVRQAPGQGLEWIGWIYPENDNTKYNEKFKDRVTITADTSTSTAYLELSSLRSEDTAVYYCARDGYSRYYFDYWGQGTLVTVSS VL: DIVMTQSPDSLAVSLGERATINCKSSQSLLNSRTRKNYLAWYQQKPGQSPKLLIYWTSTRKSGVPDRFSGSGSGTDFTLTISSLQAEDVAVYYCTQSFILRTFGQGTKVEIK
– | 51 nM | Ly6G6D (40G5c) TDB (bispecific antibody, part only; not given: anti-Ly6G6D arm and constant regions, V domains shown, not shown: another chain or arm of the molecule; a dimerising Fc or GST; small tags and cut ends) VH: QVQLQQSGPELVKPGASVKISCKASGYTFTNYYIHWVKQRPGQGLEWIGWIYPGDGNTKYNEKFKGKATLTADTSSSTAYMQLSSLTSEDSAVYYCARDSYSNYYFDYWGQGTTLTVSS VL: DIVMTQSPSSLAVSAGEKVTMSCKSSQSLLNSRTRKNYLAWYQQKPGQSPKLLIYWASTRESGVPDRFTGSGSGTDFTLTISSVQAEDLAVYYCTQSFILRTFGGGTKLEIK
